# Paper doi:10.1101/2024.02.27.582368 (bioRxiv, 2024)
# Key:
# [1] = molecular target: BC1280 (CapP, CalY-assisting polymerization protein), full-length recombinant protein (Bacillus cereus ATCC14579) (UniProt Q81GC7); experiment: native gel or EMSA
# native gel or EMSA = molecular target: the molecule itself; experiment: native gel or EMSA
stoichiometry N [1] [subunits],Molecule,stoichiometry N (native gel or EMSA) [subunits]
15,"BC1280 (CapP, CalY-assisting polymerization protein), full-length recombinant protein (from UniProt Q81GC7 1-279) (natural protein)",
,"N-domain39-190 of BC1280 (domain or fragment, Bacillus cereus ATCC14579, UniProt Q81GC7 39-190, looked up) AAFIHETKVEATLSTAIIFPKTVNTLKEQSEKHKQFIEREYGTMKGKLKATSIEEIKQAISVWQQGREKIVAEKEALQNVYTEIEAPYNQIQEELKVNKDESMQQVSIYVNEGFRSIKEKRDYIEKEISLKAIDEQIQALQQQLNVAIEAEG",~15
